Each block holds one binder with its values, some of them ahead of it.
Legend:
[1] = biological target: Epidermal growth factor receptor I (EGFR) (human) (UniProt P00533); assay: flow cytometry saturation binding on EGFR positive cells
[2] = biological target: Epidermal growth factor receptor I (EGFR) (human) (UniProt P00533); assay: flow cytometry on MDA-MB-468 cells
[3] = biological target: Epidermal growth factor receptor I (EGFR) (human) (UniProt P00533); assay: competitive radioligand binding on MDA-MB-468 cells; pre-blocking with 100-fold excess unlabeled 8709-scFv-Fc, tracer ^225Ac-8709-scFv-Fc at 50 nM
[4] = biological target: T1, Epidermal growth factor receptor I (EGFR) (human, UniProt P00533 25-1210); assay: flow cytometry saturation binding on EGFR positive cells
T1 construct: whole, on cells; MDA-MB-231 cells also carry EphA2; also called ErbB-1; HER1
Experimental: (§1) Binding profile of immunoconjugates to MDA-MB468 (high EGFR expression) and MDA-MB-435 (EGFR negative) was studied using flow cytometry. […] A saturation binding curve was performed to determine the binding constants KD at which immunoconjugates bind to the cell.
(§2) In vitro binding to target receptor (e.g. EGFR) positive cells was performed for all immunoconjugates and compared with corresponding unconjugated antibody, and control IgG. […] Target antibodies, control IgG and their respective ADCs were titrated at a minimum of a 10-fold excess onto 1×10⁵ cells. The cell-compound reactions were incubated for 30 minutes at room temperature followed by 15 minutes on ice. Cells were washed and resuspended in a 1:50 dilution of PE or FITC labeled Goat F(ab′)2 fragment anti-human IgG (H+L) antibody (Beckman Coulter, IM0839) and incubated for 30 minutes on ice in the dark. Cells were washed and suspended in 2% FBS-PBS. Data was acquired using a Beckman Coulter Gallios flow cytometer and the results were analysed using FlowJoV10. The binding constant KD for each conjugate were generated using a non-linear regression curve fit with GraphPad prism 6.

[5] = biological target: T1, Epidermal growth factor receptor I …; assay: flow cytometry on MDA-MB-468 cells
Experimental: as §1, §2

[6] = biological target: T1, Epidermal growth factor receptor I …; assay: saturation radioligand binding assay on MDA-MB-468 cells
[7] = biological target: T1, Epidermal growth factor receptor I …; assay: flow cytometry saturation binding on MDA-MB-468 cells
Experimental: as §1, §2

B1: 8709-scFv-Fc (Fc fusion, part only; not given: Linker, domain order, hinge and Fc, not shown: another chain or arm of the molecule; a dimerising Fc or GST; small tags and cut ends)
VH: EVQLVESGGGLVQPGGSLRLSCAASGFNLYSSSMHWVRQAPGKGLEWVASIYPYSGYTYYADSVKGRFTISADTSKNTAYLQMNSLRAEDTAVYYCARYPFGVSAYYAMDYWGQGTLVTVSS
VL: DIQMTQSPSSLSASVGDRVTITCRASQSVSSAVAWYQQKPGKAPKLLIYSASSLYSGVPSRFSGSRSGTDFTLTISSLQPEDFATYYCQQSYWLITFGQGTKVEIK
Kd [1]: 1.1 nM | % binding [2]: > 90% | fold reduction in the binding of ^225Ac-8709-scFv-Fc to EGFR [3]: 23.2 fold

B2: 8709-scFv-Fc-PEG6-DM1 (Fc fusion)
VH: B1 VH
VL: DIQMTQSPSSLSASVGDRVTITCRASQSVSSAVAWYQQKPGKAPKLLIYSASSLYSGVPSRFSGSRSGTDFTLTISSLQPEDFATYYCQQSYWLITFGQGTKVEIKR
modifications: PEG6-DM1 conjugated via NHS (drug to antibody ratio 3.5), sites not stated
Kd [4]: 4.2 nM | % binding [5]: > 90%

Now from value to binder:

Kd [6]: 14.5 nM
B3: ^225Ac-8709-scFv-Fc (Fc fusion)
VH: B1 VH
VL: B2 VL
modifications: macropa chelator with ^225Ac, sites not stated

fold higher KD value as compared to 8709-scFv-Fc [7]: 10.4 fold | Kd [4]: 11.3 nM
B4: Macropa-8709-scFv-Fc (Fc fusion)
VH: B1 VH
VL: B2 VL
modifications: macropa chelator conjugated via macropa-NCS, sites not stated

From patent publication US20250127943A1 (published 2025)
